Values of other authors as cited in patent US20120225099A1, “COMPOSITIONS FOR AND METHODS OF […] CYCLASE C” (Thomas Jefferson University, priority 2009, published 2012).
Ends that are not written are not given here.

Biological target: guanylate cyclase (ST receptors) (Homo sapiens, UniProt P25092)
Conditions: relative to native ST; about

Sequence of guanylate cyclase (ST receptors) (P25092 24-1073): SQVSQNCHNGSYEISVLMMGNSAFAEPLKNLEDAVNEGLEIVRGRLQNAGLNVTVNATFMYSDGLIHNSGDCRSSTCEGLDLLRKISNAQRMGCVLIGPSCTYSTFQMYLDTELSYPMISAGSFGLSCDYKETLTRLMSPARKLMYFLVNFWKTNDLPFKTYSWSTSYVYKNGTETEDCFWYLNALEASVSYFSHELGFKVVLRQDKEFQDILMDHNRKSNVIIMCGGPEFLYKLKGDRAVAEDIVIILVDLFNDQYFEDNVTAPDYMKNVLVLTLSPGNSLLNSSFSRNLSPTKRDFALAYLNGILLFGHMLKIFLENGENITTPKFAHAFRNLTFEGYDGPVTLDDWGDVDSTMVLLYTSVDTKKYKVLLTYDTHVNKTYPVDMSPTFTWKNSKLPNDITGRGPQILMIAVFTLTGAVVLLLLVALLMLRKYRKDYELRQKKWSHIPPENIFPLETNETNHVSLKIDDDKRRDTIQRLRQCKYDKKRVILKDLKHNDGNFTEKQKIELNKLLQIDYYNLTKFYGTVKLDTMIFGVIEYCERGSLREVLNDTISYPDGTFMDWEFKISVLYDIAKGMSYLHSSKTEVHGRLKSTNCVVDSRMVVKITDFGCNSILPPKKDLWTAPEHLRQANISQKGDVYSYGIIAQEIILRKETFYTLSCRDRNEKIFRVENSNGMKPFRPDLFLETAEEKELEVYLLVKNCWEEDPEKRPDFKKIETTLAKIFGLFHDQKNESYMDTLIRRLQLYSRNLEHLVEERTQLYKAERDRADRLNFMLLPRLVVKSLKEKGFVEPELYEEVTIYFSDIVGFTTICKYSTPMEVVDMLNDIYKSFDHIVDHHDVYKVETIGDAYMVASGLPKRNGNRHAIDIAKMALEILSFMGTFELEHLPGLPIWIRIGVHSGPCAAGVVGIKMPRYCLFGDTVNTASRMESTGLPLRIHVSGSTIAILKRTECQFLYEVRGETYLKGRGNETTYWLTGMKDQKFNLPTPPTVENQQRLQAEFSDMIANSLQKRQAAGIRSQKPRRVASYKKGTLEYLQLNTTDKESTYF

PNTCEICAYAACTGC (cysteine pairing not given here) [Guanylin, 15 amino acid peptide identified in mammalian intestine; native GCC ligand]
activates guanylate cyclase at a level less than native ST: 10- to 100 fold
